Changes are numbered by the printed parent chain. Names and notes keep the numbering of the source. Where two headings read alike, the source gives them in different places.
T1: nuclear cap-binding complex (CBC: CBP80ΔNLS + CBP20), human (human, UniProt Q09161 20-790; P52298 1-156)
T1 sequence 1: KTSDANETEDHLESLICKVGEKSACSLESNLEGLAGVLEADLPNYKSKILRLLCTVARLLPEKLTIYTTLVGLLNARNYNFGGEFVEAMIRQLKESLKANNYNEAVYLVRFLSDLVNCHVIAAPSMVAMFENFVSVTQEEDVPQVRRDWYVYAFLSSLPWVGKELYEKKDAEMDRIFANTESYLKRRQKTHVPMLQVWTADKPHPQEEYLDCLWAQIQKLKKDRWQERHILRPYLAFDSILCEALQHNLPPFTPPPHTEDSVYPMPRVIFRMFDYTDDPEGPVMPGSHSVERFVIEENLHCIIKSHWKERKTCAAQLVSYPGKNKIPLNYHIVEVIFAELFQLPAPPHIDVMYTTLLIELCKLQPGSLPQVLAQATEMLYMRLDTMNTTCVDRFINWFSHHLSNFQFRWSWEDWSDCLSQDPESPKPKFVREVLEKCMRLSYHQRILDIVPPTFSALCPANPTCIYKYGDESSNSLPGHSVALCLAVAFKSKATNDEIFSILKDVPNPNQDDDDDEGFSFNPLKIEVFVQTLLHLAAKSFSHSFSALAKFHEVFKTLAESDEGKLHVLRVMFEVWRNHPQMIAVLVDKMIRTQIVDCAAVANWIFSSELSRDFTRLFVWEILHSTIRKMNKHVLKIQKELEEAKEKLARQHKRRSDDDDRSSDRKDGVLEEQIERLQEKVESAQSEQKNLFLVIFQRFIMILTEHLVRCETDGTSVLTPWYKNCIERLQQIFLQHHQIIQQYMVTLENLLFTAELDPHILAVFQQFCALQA
T1 sequence 2: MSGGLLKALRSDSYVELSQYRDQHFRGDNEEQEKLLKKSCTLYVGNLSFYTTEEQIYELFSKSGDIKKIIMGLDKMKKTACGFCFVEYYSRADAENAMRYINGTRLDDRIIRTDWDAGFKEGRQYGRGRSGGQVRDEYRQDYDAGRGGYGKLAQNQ

T2: CBP80ΔNLS (NCBP1), human (human, UniProt Q09161 20-790)
T2 sequence (looked up): T1 sequence 1

B1: capped 12-mer RNA (m7Gppp-AAUCUAUAAUAG) (ssRNA)
RNA: AAUCUAUAAUAG
modifications: 5' m7Gppp cap
B2: NCBP3^560-620 with C-terminal residues 598-620 removed (domain or fragment, human, UniProt Q53F19 560-597, looked up)
chain: TKKVDHRAPGAEEDDSELQRAWGALIKEKEQSRQKKSR
B3: MBP-ZC3H18^117-258 (domain or fragment)
chain: SSVTRELDEHELDYDEEVPEEPAPAVQEDEAEKAGAEDDEEKGEGTPREEGKAGVQSVGEKESLEAAKEKKKEDDDGEIDDGEIDDDDLEEGEVKDPSDRKVRPRPTCRFFMKGNCTWGMNCRFIHPGVNDKGNYSLITKAD
B4: His-MBP-NCBP3^560-620 (domain or fragment, human, UniProt Q53F19 560-620, looked up)
chain: TKKVDHRAPGAEEDDSELQRAWGALIKEKEQSRQKKSRLDNLPSLQIEVSRESSSGSEAES
B5: NCBP3^560-620 (tag cleaved, cryo-EM sample) (domain or fragment, human, UniProt Q53F19 560-620, looked up)
chain: B4 chain
B6: His-MBP-PHAX^103-196 (domain or fragment, human, UniProt Q9H814 103-196, looked up)
chain: SQKPPVAGGKKINNIWGAVLQEQNQDAVATELGILGMEGTIDRSRQSETYNYLLAKKLRKESQEHTKDLDKELDEYMHGGKKMGSKEEENGQGH
B7: NELF-E^244-380 (domain or fragment, human, UniProt P18615 244-380, looked up)
chain: GPFRRSDSFPERRAPRKGNTLYVYGEDMTPTLLRGAFSPFGNIIDLSMDPPRNCAFVTYEKMESADQAVAELNGTQVESVQLKVNIARKQPMLDAATGKSVWGSLAVQNSPKGCHRDKRTQIVYSDDVYKENLVDGF
B8: NELF-E^244-380 (W345E) (domain or fragment, human, UniProt P18615 244-380, looked up)
chain: B7 chain with W102E
B9: CBP20 (NCBP2), human (natural protein)
chain: T1 sequence 2
B10: His-MBP-NCBP3^360-620 (domain or fragment, human, UniProt Q53F19 360-620, looked up)
chain: DQDMDADDRVVVEYHEELPALKQPRERSASRRSSASSSDSDEMDYDLELKMISTPSPKKSMKMTMYADEVESQLKNIRNSMRADSVSSSNIKNRIGNKLPPEKFADVRHLLDEKRQHSRPRPPVSSTKSDIRQRLGKRPHSPEKAFSSNPVVRREPSSDVHSRLGVPRQDSKGLYADTREKKSGNLWTRLGSAPKTKEKNTKKVDHRAPGAEEDDSELQRAWGALIKEKEQSRQKKSRLDNLPSLQIEVSRESSSGSEAES
B11: NCBP3^560-620 truncated to residue 590 (domain or fragment, human, UniProt Q53F19 560-590, looked up)
chain: TKKVDHRAPGAEEDDSELQRAWGALIKEKEQ
B12: MBP-ZC3H18^177-215 (domain or fragment)
chain: KESLEAAKEKKKEDDDGEIDDGEIDDDDLEEGEVKDPSD
B13: His-MBP-ZC3H18^298-339 (domain or fragment, human, UniProt Q86VM9 298-339, looked up)
chain: ESAWERGLRHAKEVLKKATIRKEQEPDFEEKRFTVTIGEDER

Experiments:
ARS2^147-871 (human) [1] = experiment: ITC
[2] = biological target: PHAX^1-18 peptide (ARM 9-EDGQL), biotinylated (human) (UniProt Q9H814); experiment: BLI
[3] = biological target: ZC3H18 double ARM motif peptide, biotinylated (human); experiment: BLI
[4] = biological target: CBP80 (delta NLS);CBP20;PHAX (human;human;human, UniProt Q09161;P52298;Q9H814 20-790;1-156;1-394, del1-19||); experiment: cryo-EM
[5] = biological target: T1, nuclear cap-binding complex (CBC: …); experiment: ITC
ARS2^147-871 (human) [6] = experiment: ITC; remark: listed apart in the source
[7] = biological target: T1, nuclear cap-binding complex (CBC: …); experiment: ITC; remark: listed apart in the source
[8] = biological target: T1, nuclear cap-binding complex (CBC: …); experiment: ITC; remark: listed apart in the source
CBP20 (NCBP2), human = biological target: B9; experiment: cryo-EM structure
CBP80ΔNLS (NCBP1), human = biological target: T2, CBP80ΔNLS (NCBP1), human; experiment: cryo-EM structure
full-length PHAX = full-length PHAX (human, UniProt Q9H814 1-394); experiment: cryo-EM structure
[9] = biological target: T1, nuclear cap-binding complex (CBC: …); experiment: pull-down
[10] = biological target: T1, nuclear cap-binding complex (CBC: …); experiment: SPR

Chain of CBP80 (delta NLS);CBP20;PHAX (Q9H814 whole entry, stated change not applied, one chain of several): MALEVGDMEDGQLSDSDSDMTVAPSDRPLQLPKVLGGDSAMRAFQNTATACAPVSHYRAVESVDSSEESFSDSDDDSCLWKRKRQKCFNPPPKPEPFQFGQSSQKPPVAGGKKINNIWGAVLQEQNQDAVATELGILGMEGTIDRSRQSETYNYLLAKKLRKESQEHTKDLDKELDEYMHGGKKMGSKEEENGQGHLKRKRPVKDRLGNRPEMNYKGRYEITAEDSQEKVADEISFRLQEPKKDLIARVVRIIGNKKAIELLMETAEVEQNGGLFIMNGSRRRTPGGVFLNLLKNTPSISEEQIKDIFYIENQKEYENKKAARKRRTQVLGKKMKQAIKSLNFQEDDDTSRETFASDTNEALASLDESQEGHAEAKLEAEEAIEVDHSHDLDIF
Chain of full-length PHAX (human, UniProt Q9H814 1-394) (Q9H814 whole entry): as the sequence (Q9H814 whole entry, stated change not applied, one chain of several) above

In the case of “full-length PHAX (from UniProt Q9H814 1-394) (natural protein)”, the Kd (ARS2^147-871 (human) [1]) is reported as 4100 nM.

Molecule ARS2^147-871 (domain or fragment) has a Kd [2] of 6100 nM and a Kd [3] of 7700 nM.

B1: binds [4].

B2 showed a Kd [5] of 222 nM.

For B3, the Kd (ARS2^147-871 (human) [6]) was 700 nM.

For B4, the Kd [7] was about 115 nM and the Kd [8] was about 173 nM.

B5: binds (CBP20 (NCBP2), human).

B6 showed a Kd [7] of 2400 nM.

B7 was tested, and the Kd [5] was 113 nM.

B8 was tested, and the Kd [5] was 1300 nM.

B9: binds (CBP80ΔNLS (NCBP1), human); binds (full-length PHAX).

B10: binds [9].

B11 was tested, and the Kd [5] was 6000 nM.

Molecule B12 has a Kd (ARS2^147-871 (human) [6]) of 3500 nM.

B13 gave a Kd [10] of 150 nM.
